Reference: the supplement of paper PMC9112550, “Optimization of the antimicrobial peptide Bac7 by deep mutational scanning” (BMC Biology, 2022)

These sequences were tested on Escherichia coli TOP10 (assay: shrunken log2 fold change of peptide-encoding DNA abundance (4.5 h post-induction vs induction); higher = less antimicrobial activity (less host growth inhibition)). Conditions: time post-induction: 4.5 h; library: site-saturation at positions 5, 18, 19, 20.
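Further: peptides expressed intracellularly from a pBAD plasmid library in pooled LB shake-flask culture, induced with 0.3% L-arabinose, DNA abundance read by NGS, three biological replicates, DESeq2 with apeglm shrinkage.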

Row | Sequence | shrunken log2 fold change
1 | RRIRNRPPRLPRPRPRPQAYPRP | -0.3
2 | RRIRTRPPRLPRPRPRPHAKPRP | 0.0187
3 | RRIRDRPPRLPRPRPRPLGAPRP | 0.751
4 | RRIRARPPRLPRPRPRPNNTPRP | -0.423
5 | RRIRSRPPRLPRPRPRPWAKPRP | -0.00197
6 | RRIRIRPPRLPRPRPRPHDNPRP | -0.53
7 | RRIRTRPPRLPRPRPRPDIKPRP | -0.197
8 | RRIRHRPPRLPRPRPRPGGPPRP | -0.355
9 | RRIRERPPRLPRPRPRPVYPPRP | -0.335
10 | RRIRRRPPRLPRPRPRPHSYPRP | -0.187
11 | RRIRCRPPRLPRPRPRPASWPRP | 0.219
12 | RRIRSRPPRLPRPRPRPHHPPRP | -0.369
13 | RRIRYRPPRLPRPRPRPLKHPRP | -1.82
14 | RRIRCRPPRLPRPRPRPHLLPRP | -0.375
15 | RRIRWRPPRLPRPRPRPGLLPRP | 0.403
16 | RRIRQRPPRLPRPRPRPSVPPRP | -0.0859
17 | RRIRVRPPRLPRPRPRPIQGPRP | 0.0292
18 | RRIRERPPRLPRPRPRPNVVPRP | 0.0366
19 | RRIRKRPPRLPRPRPRPGTIPRP | -0.0588
20 | RRIRGRPPRLPRPRPRPYHPPRP | -0.559

Row | Sequence | shrunken log2 fold change
21 | RRIRQRPPRLPRPRPRPSHFPRP | 0.0685
22 | RRIRCRPPRLPRPRPRPPAWPRP | 0.692
23 | RRIRVRPPRLPRPRPRPPPSPRP | 0.897
24 | RRIRDRPPRLPRPRPRPQRAPRP | 0.0568
25 | RRIRIRPPRLPRPRPRPTVLPRP | -0.369
26 | RRIRNRPPRLPRPRPRPLVIPRP | -0.432
27 | RRIRHRPPRLPRPRPRPIDIPRP | -0.326
28 | RRIRCRPPRLPRPRPRPIQDPRP | -0.49
29 | RRIRERPPRLPRPRPRPPKVPRP | -0.0931
30 | RRIRNRPPRLPRPRPRPAKYPRP | -0.134
31 | RRIRERPPRLPRPRPRPRCYPRP | -0.138
32 | RRIRDRPPRLPRPRPRPFDEPRP | 0.0788
33 | RRIRVRPPRLPRPRPRPWIWPRP | 0.00605
34 | RRIRGRPPRLPRPRPRPLAVPRP | 0.809
35 | RRIRTRPPRLPRPRPRPQGGPRP | 0.114
36 | RRIRGRPPRLPRPRPRPGWRPRP | 1.09
37 | RRIRRRPPRLPRPRPRPRGYPRP | 0.398
38 | RRIRTRPPRLPRPRPRPHVQPRP | -0.156
39 | RRIRRRPPRLPRPRPRPQRMPRP | 0.13
40 | RRIRFRPPRLPRPRPRPEYNPRP | -0.113

Row | Sequence | shrunken log2 fold change
41 | RRIRPRPPRLPRPRPRPHTCPRP | -0.123
42 | RRIRTRPPRLPRPRPRPELIPRP | -0.0864
43 | RRIRKRPPRLPRPRPRPTTEPRP | 0.579
44 | RRIRLRPPRLPRPRPRPTDMPRP | -0.633
45 | RRIRNRPPRLPRPRPRPQSYPRP | 0.0549
46 | RRIRHRPPRLPRPRPRPAKQPRP | 0.307
47 | RRIRCRPPRLPRPRPRPAIYPRP | -0.17
48 | RRIRGRPPRLPRPRPRPEGRPRP | 1.39
49 | RRIRFRPPRLPRPRPRPDPPPRP | 0.37
50 | RRIRFRPPRLPRPRPRPNKDPRP | 0.539
51 | RRIRIRPPRLPRPRPRPGSQPRP | -0.0143
52 | RRIRCRPPRLPRPRPRPAKAPRP | 0.162
53 | RRIRTRPPRLPRPRPRPMLVPRP | -0.000238
54 | RRIRPRPPRLPRPRPRPECFPRP | 0.122
55 | RRIRSRPPRLPRPRPRPKMMPRP | -0.214
56 | RRIRGRPPRLPRPRPRPEIPPRP | 0.196
57 | RRIRGRPPRLPRPRPRPRKDPRP | 0.726
58 | RRIRNRPPRLPRPRPRPWNFPRP | -0.0018
59 | RRIRPRPPRLPRPRPRPCPGPRP | -0.0306
60 | RRIRARPPRLPRPRPRPSCNPRP | -0.515
